Experimental findings from the nanobody polyreactivity screen of Harvey et al. (2022) are described below.

This data set in a line: yeast display, Sf9 membrane polyspecificity reagent, FACS + sequencing; frameworks hold sequencing errors. In short, it runs like this: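 Nanobodies from a synthetic yeast display library (Saccharomyces cerevisiae BJ5465), induced 36–48 hours with galactose, were stained 1 hour at 4 °C with 10% biotinylated, detergent-solubilized Sf9 membrane reagent, enriched on streptavidin microbeads, then FACS-sorted. Anti-HA (expression) and streptavidin (reagent binding) fluorescence set low and high (top ~1%) gates. Polyreactivity labels come from the gate of origin. Genes were colony-PCR amplified, MiSeq 2 × 250 sequenced and filtered by CDR length.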
On to “QVQLVESGGGLVQAGGSLRLSWAASGFTFTPYAMGWYRPAPGKEREFVAAISQRGTSTFYADSVKGRFTISRDNAKHTVYLQMNSLKPEDTAVYYCAKPYRQYTSAYYNTYNYWGQGTEVTVSS”, for which the “polyreactivity (PSR sort gate)” value was “high polyreactivity”.

As for “QVQLVESGGGLVQAGGSLRLSWAASGLIFSSNAMGWYRQAPGKERDLVAAITRSGGSTYYADSVKGRFTISRDNAKNTVYLQMNSLKPEDTAVYYCAARYSQRGITFYYWGQGTQVTVSS”, the “polyreactivity (PSR sort gate)” value is “high polyreactivity”.

For the sequence “QVQLVESGGGLVQAGGSLRLSWAASGRIFVLNAMGSYRQAPGKERELVAAISTGASTNYADSVKGRFTISRDNAKNTVYLKMNSLTPEATAVYYCAAAPGSSGARTSYILAYDYWGLGTQVTVSS”, the “polyreactivity (PSR sort gate)” value is reported as “low polyreactivity”.

On to “QVQLVESGGGLVQAGGSLRLSWAASGSIFFYYTIGWYRQAPGKERELVAAISVGGSTYYADSVKGRFTISRDNAKNTVYLQMNSLKPEDTAVYYSNAVPAKGFVTVVRYYYWGQGTQVTVSS”, for which the “polyreactivity (PSR sort gate)” value is on record as “low polyreactivity”.

Turning to “QVQLVESGGGLVQAGGSLRLSWAASGSTFRLYAMGWYRQAPGKERELVAAITWSGGSTYYADSVKGRFTISRDNAKNTVYLQMNSLKPEDTAVYYCAAHRIGYYLRVSYRGKYDHWGQGTQVTVSS”, the “polyreactivity (PSR sort gate)” value was “low polyreactivity”.

In the case of “QVQLVESGGGLVQAGGSLRLSWAASGSTLSLYAMGWYRQAPGKERELVAAITSSGGTYYADSVKGRFTISRDNAKNTVYLQMNSLKPEVTAVYYCNAYAKDARSYGYHRVNYWGQGTQVTVSS”, the “polyreactivity (PSR sort gate)” value is given as “high polyreactivity”.

For the sequence “QVQLVESGGGLVQAGGSLRLTCAACGRIFNKYAMVWYIQAPGKERELVAAINGGGSTNYADSVKGRFTISRDNAKNTDYLQMNSLKAEDTAVYYCSTTPDGEGGYWGQGTQVTVSS”, the “polyreactivity (PSR sort gate)” value is “low polyreactivity”.

As for “QVQLVESGGGLVQAGGSLRLTCAACGRTFYWYSMGWYRKAPGKERELVATITRTGTRTYYADSVKGRFTISRDNAKNTVYLQMNSLKPEDTAVYYCAAGVIRYGGKEEYYYWGLGTQVTVSS”, the “polyreactivity (PSR sort gate)” value was “high polyreactivity”.

With “QVQLVESGGGLVQAGGSLRLTCAASARIFGYYVMGWSRQAPGKETELVAAIRSSADSTYYADSVKGRFTISRDNAKNTVYLQMNSLKPEDTAVYYCAAQSPAYYTKSYWGQGTQVTVSS”, the “polyreactivity (PSR sort gate)” value is given as “low polyreactivity”.

Regarding “QVQLVESGGGLVQAGGSLRLTCAASGFIFEHYAMGWYRQAPGKERELVARISWRGGSTYYADSVKGRFTISRDNAKNTVYFQMNSLKPEDTAVYYCNAQEVVYFGYYPSDYWGQGTQVTVSS”, the “polyreactivity (PSR sort gate)” value is recorded as “low polyreactivity”.

Take “QVQLVESGGGLVQAGGSLRLTCAASGFIFQIYAMGWYRQAPGKERELVAAISSGGSTNYADSVKGRFTISRDNAKNTVYLQMNSLKPEDTAVYYCAAATQYWYFYSFKDKSGFRGYYWGQGTQVTVSS”: the “polyreactivity (PSR sort gate)” value is recorded as “high polyreactivity”.

On to “QVQLVESGGGLVQAGGSLRLTCAASGFIFRAYAKGWYRQEPGKERELVAAISRSVSRTYYADSVKGRFTISRDNAKNTVYLQMNSLKPEDTAVYYCAADGQLHMDYWGQGTQVTVSS”, for which the “polyreactivity (PSR sort gate)” value was “high polyreactivity”.

In the case of “QVQLVESGGGLVQAGGSLRLTCAASGFIFYAYTMRCYRQAPGKERELVAAISRSGGRTYYADSVKGRFTISRDNAKNTVYLQMNRLKPEDTAVYYCAAEYRGVPRVVVDYDYWGQGTQVTVSS”, the “polyreactivity (PSR sort gate)” value is listed as “high polyreactivity”.

In the case of “QVQLVESGGGLVQAGGSLRLTCAASGFIVKYNAMGWYRQAPGKERELVAAITSTGSTNYADSVKGRFTISRDNAKNTVYFQMISLKPEDNAVYYCAAYWRSRNRFNWGQGTQVTVTS”, the “polyreactivity (PSR sort gate)” value is “high polyreactivity”.

Turning to “QVQLVESGGGLVQAGGSLRLTCAASGFIYYYNAMGWYRQAPGKERQLVAAISASGDRTYYADSVKGRFTISRDNAKNTVYLQMNSLKPEDTAVYYCAARSQGARYSSRRRFGDYWGQGTQVTVSS”, the “polyreactivity (PSR sort gate)” value is on record as “high polyreactivity”.

For “QVQLVESGGGLVQAGGSLRLTCAASGFTFARNTMGWYRQAPGKERELVAAISKNGGSTYYADSVKGRFTISRDNAKNTVYLQMNSLTPEDTAVYYCNTYPSKVGRYSVKDYEYGYWGQGTQVTVSS”, the “polyreactivity (PSR sort gate)” value is “high polyreactivity”.

In the case of “QVQLVESGGGLVQAGGSLRLTCAASGFTFDQYAMGWYRQEPGKERELVAAISFDGSSTYYADSVKGRFTISRDNAKNTVYLQMNSLKPEDTAVYYCNAAVRGYSSLYRYGYWGQGTQVTVSS”, the “polyreactivity (PSR sort gate)” value was “high polyreactivity”.

With “QVQLVESGGGLVQAGGSLRLTCAASGFTFFYNAMGWYRQAPGKERELVAAISRGGGRTYYADSVKGRFTISRDNAKNTVYLQMNSLKPEDTAVYYCAKEYGGTRGRKLDYWGQGTQVTVSS”, the “polyreactivity (PSR sort gate)” value was “high polyreactivity”.

Regarding “QVQLVESGGGLVQAGGSLRLTCAASGFTFGEYAMGWYRQAPGKERELVAVITSGGGRTYYADSVKGRFTISRDNAKNNVYLEMNSLNPEDTAAYYCAAQPKPQLERKDDYWGQGTQVTVSS”, the “polyreactivity (PSR sort gate)” value was “high polyreactivity”.

On to “QVQLVESGGGLVQAGGSLRLTCAASGFTFRSYAMGWYRQAPGKERELVADISIRGGGTYYADSVKGRFTISRDNAKNTVYLQRNSLKPEDTAVYYCAAERYKPFLWPRYDYWGQGTQVTVSS”, for which the “polyreactivity (PSR sort gate)” value is reported as “low polyreactivity”.

For “QVQLVESGGGLVQAGGSLRLTCAASGFTFYRNTMGWYRQAPGKERELVAAITQRGGSTYYADSVKGRFTISRDNAKNTVYLQMNSLKPEDTAVYYCNRDVKVLYASSHSPYGYDHWGQGTQVTVSS”, the “polyreactivity (PSR sort gate)” value is recorded as “low polyreactivity”.

As for “QVQLVESGGGLVQAGGSLRLTCAASGGIFQFYDMGWYRQAPGKERELVAAITSSGGSTYADSVKGRFTISRDNAKYTVYLQMNSLKPEVTAVYYCAASLVWEYAPGWRFKYGYWGQGTQVTVSS”, the “polyreactivity (PSR sort gate)” value is recorded as “high polyreactivity”.

For “QVQLVESGGGLVQAGGSLRLTCAASGGTISVYDMGWYRQAHGNERELVAAIRDRGVSTYYADSVKGRFTISRDTAKNTVYLQMNSLKPEDTAVYYCAAEYFDGSTYSYYYWGQGTQVTVSS”, the “polyreactivity (PSR sort gate)” value is “high polyreactivity”.

As to “QVQLVESGGGLVQAGGSLRLTCAASGIIFKQNVKGWYRKAPGKESELVAAITSRDGTTYYADSVKGRFTISRDNAKNTVYLQMNSLKPEDTAVYYCATLFKSGSYKYGYWGQGTQVTVSS”, the “polyreactivity (PSR sort gate)” value is reported as “high polyreactivity”.

Consider “QVQLVESGGGLVQAGGSLRLTCAASGIIFRGYVMAWYRQAPGKERELVAAISTSGGRTSYADSVKGRFTISRDNAKNTVYLQMNSLKPEDTAVYYCKTRVTGNRLGYYYWGQGTQVTVSS”, for which the “polyreactivity (PSR sort gate)” value is “high polyreactivity”.

In the case of “QVQLVESGGGLVQAGGSLRLTCAASGITFGRNVMGWYRQAPGKEMELVATISGSAGYTYYADSVKGRFTISRDYAKNTVYFQMNSLKPEDTSVYYCAARQRKARQIVLLDYWGQGTKVTVSS”, the “polyreactivity (PSR sort gate)” value is recorded as “high polyreactivity”.

In the case of “QVQLVESGGGLVQAGGSLRLTCAASGITFGSYAMGWYRQAPGKERELVAAITWRDGSTYYADSVKGRFTISRDNAKNTVYLQMYSLKPEDTAVYYCAAYLGLRYVGDVSDTWRYDYWGQGTQVTVSS”, the “polyreactivity (PSR sort gate)” value was “low polyreactivity”.

Consider “QVQLVESGGGLVQAGGSLRLTCAASGITFLHYAMGWYRQAPGKERELVATISRRGGSTYYADSVKGRFTNSRDNAKYTVYLQLNSLKPEDTAVYYCAADSYYLRHYSAGYYFKRYYWGQGTQVTVSS”, for which the “polyreactivity (PSR sort gate)” value was “high polyreactivity”.

Consider “QVQLVESGGGLVQAGGSLRLTCAASGITFTQNAMGWYRQAPGKERELVAAISRSGTITYYADSVKGRFTISRDHAKNTVYLQMNSLKPEDTAVYYCNKLRPQRSWEYDYWGQGTQVTVSS”, for which the “polyreactivity (PSR sort gate)” value is given as “high polyreactivity”.

“QVQLVESGGGLVQAGGSLRLTCAASGITFYDNAMGWYRQAPGKERELVAGISYDGDSTYADSVKGRFTNSRDNAKNTVYLQMNSLKPEDTAVYYCAADSSGEYPGGYWGQGTQVTVSS”: the “polyreactivity (PSR sort gate)” value is recorded as “low polyreactivity”.

On to “QVQLVESGGGLVQAGGSLRLTCAASGITLGFYAMGWYRQAPGKERELVAAISGRGGSTYYADSVKGRFTISRDNAKNTVYLKMNSLKPEDTPVYYCNALGYYQLVTPFYYWGQGTQVTVSS”, for which the “polyreactivity (PSR sort gate)” value was “high polyreactivity”.

As for “QVQLVESGGGLVQAGGSLRLTCAASGLTFDSNVMGWYREAPGKERELVAANTYSGRTYYADSEKGRFTISRDNAKNTVYLQMNSLKPEDTAVYYCAARNLAYTRKGYYYWGQGTQVTVSS”, the “polyreactivity (PSR sort gate)” value is recorded as “high polyreactivity”.

Turning to “QVQLVESGGGLVQAGGSLRLTCAASGLTFWWYAMGWYRQAPGKERELVAGITGGGSTSYADSVKGRFTISRDNAKNTVYLQMNSLIQEDTAVYYCAASPYNGQRTWYKYFFLGDYWGQGTQVTVSS”, the “polyreactivity (PSR sort gate)” value is given as “high polyreactivity”.

As to “QVQLVESGGGLVQAGGSLRLTCAASGNIFVGNDMGWYRQAPGKERELVAAISSGDTTSYADSVKGRFTISRDNAKNTVYLKMNSLKPEETAVYYCAVDRSLSPFAYDYWGQGTQVTVSS”, the “polyreactivity (PSR sort gate)” value is reported as “low polyreactivity”.

On to “QVQLVESGGGLVQAGGSLRLTCAASGNIFYINAMGSYRQAPGKDRELVAAIRGGGSTYYADSVKGRFTISRDNAKKTVYLQMTSLKAEDTAVYYCAARGRRLNPQYRAFGMDYWGQGTQVTVSS”, for which the “polyreactivity (PSR sort gate)” value is listed as “high polyreactivity”.

As for “QVQLVESGGGLVQAGGSLRLTCAASGRIFDRYVMGWYRQAPGKERELVAAITFSGGRTYYADSVKGRFTISRDNAKNTVYLQMNSLKPEDTAVYYCNRVYYQKIYDYWGQGTQVTVSS”, the “polyreactivity (PSR sort gate)” value is “high polyreactivity”.

For the sequence “QVQLVESGGGLVQAGGSLRLTCAASGRIFDYNDMGWYRQAPGKERELVAAITSDGSTNYADSVKGRFTISRDNAKNTVFLQMNSLKPEDPAVYYCAADTGETFDSIYDYWGQGTQVTVSS”, the “polyreactivity (PSR sort gate)” value is “low polyreactivity”.

Consider “QVQLVESGGGLVQAGGSLRLTCAASGRIFGYYVMGWYRQAPGKERELVAAIRSSADSTYYADSVKGRFTISRDNAKNTVYLQMNSLKPEDTAVYYCNADTTGYWSYGFQYYGEDYWGQGTQVTVSS”, for which the “polyreactivity (PSR sort gate)” value is “low polyreactivity”.

For the sequence “QVQLVESGGGLVQAGGSLRLTCAASGRIFKYYAMGWYRQAPGKEREFVADISRRGGSTYYADSVKGRFTISRDNAKNTVYLQMNSLKPEDTAVYYCAAQSGYIMDYWGQGTQVTVSS”, the “polyreactivity (PSR sort gate)” value is “high polyreactivity”.

Regarding “QVQLVESGGGLVQAGGSLRLTCAASGRIFRVNGMGWYRQAPWKERDLVAPIRRSGGSTYYADSVKGRFTISRDNSKNNVYLQMKSLKPEDTAVYYCAAPVLLSSYTRYDSWGQGTQVTVSS”, the “polyreactivity (PSR sort gate)” value is listed as “high polyreactivity”.
